Square brackets hold non-standard residues; d marks the D form. Ends that are not written are not given here. Hyp = O=C(O)[C@@H]1C[C@@H](O)CN1
molecular target: T1, DPP-4 (manufactured by Sigma, derived from porcine kidney) (porcine, UniProt P22411 38-766, limits assumed); assay: cell-based or functional assay
T1 sequence (P22411 38-766 limits assumed): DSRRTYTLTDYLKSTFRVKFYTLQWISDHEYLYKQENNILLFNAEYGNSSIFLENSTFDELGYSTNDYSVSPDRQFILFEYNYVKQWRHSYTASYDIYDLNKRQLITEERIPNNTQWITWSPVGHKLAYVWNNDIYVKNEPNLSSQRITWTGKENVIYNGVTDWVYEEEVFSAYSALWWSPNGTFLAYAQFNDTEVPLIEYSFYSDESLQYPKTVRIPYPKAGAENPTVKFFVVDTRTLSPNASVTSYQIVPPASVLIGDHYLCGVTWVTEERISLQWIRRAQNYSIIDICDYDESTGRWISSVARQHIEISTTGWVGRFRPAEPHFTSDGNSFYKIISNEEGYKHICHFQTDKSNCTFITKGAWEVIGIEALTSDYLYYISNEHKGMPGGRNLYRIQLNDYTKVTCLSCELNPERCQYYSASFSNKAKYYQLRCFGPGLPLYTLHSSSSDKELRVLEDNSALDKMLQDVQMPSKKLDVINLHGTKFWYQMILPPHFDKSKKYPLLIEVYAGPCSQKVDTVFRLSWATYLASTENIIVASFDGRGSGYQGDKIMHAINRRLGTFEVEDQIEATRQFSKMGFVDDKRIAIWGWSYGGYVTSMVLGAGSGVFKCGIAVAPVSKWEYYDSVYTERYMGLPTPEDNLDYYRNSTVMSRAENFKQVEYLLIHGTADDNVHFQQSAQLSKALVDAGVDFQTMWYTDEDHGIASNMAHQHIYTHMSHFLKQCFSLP

In order of rising “IC50 value”:
1. GPIGPV [Gly-Pro-Ile-Gly-Pro-Val]  9.3 µM
2. GPLGPV [Gly-Pro-Leu-Gly-Pro-Val]  24 µM
3. GPAGPI [Gly-Pro-Ala-Gly-Pro-Ile]  50 µM
4. GPAGP [Gly-Pro-Ala-Gly-Pro]  60 µM
5. GPAGP[Hyp] [Gly-Pro-Ala-Gly-Pro-Hyp]  70 µM
6. GPAGPR [Gly-Pro-Ala-Gly-Pro-Arg]  80 µM
7. GPE [Gly-Pro-Glu]  194 µM
8. GAIGPA [Gly-Ala-Ile-Gly-Pro-Ala]  285 µM
9. GPQ [Gly-Pro-Gln]  310 µM
10. GAIGPS [Gly-Ala-Ile-Gly-Pro-Ser]  314 µM
11. GAVGPA [Gly-Ala-Val-Gly-Pro-Ala]  437 µM
12. GAVGP [Gly-Ala-Val-Gly-Pro]  1200 µM
13. GA [Gly-Ala]  3340 µM
14. GPP [Gly-Pro-Pro]  78200 µM

In order of rising “Inhibition rate (%) at 0.35 mg/ml time” value:
1. Gly-Pro-[Hyp] [Gly-Pro-Hyp]  0%
2. Gly-Ala-[Hyp] [Gly-Ala-Hyp]  0%
3. GPP [Gly-Pro-Pro]  10.2%
4. GAVGP [Gly-Ala-Val-Gly-Pro]  40.9%
5. GA [Gly-Ala]  42.5%
6. GAVGPA [Gly-Ala-Val-Gly-Pro-Ala]  63.7%
7. GAIGPS [Gly-Ala-Ile-Gly-Pro-Ser]  70.4%
8. GAIGPA [Gly-Ala-Ile-Gly-Pro-Ala]  71.5%
9. GPQ [Gly-Pro-Gln]  80.2%
10. GPE [Gly-Pro-Glu]  86.4%
11. GPAGP [Gly-Pro-Ala-Gly-Pro]  95.8%

molecular target: T1, DPP-4 (manufactured by Sigma, derived …); assay: cell-based or functional assay; remark: another data set of the same source

In order of falling “IC50 value”:
1. Ala-[Hyp]-Gly [Ala-Hyp-Gly]  9450 µM
2. Pro-[Hyp]-Gly [Pro-Hyp-Gly]  4640 µM
3. Leu-[Hyp] [Leu-Hyp]  1320 µM
4. L[Hyp]GPA [Leu-Hyp-Gly-Pro-Ala]  830 µM
5. Ile-[Hyp]-Gly [Ile-Hyp-Gly]  500 µM
6. Leu-[Hyp]-Gly [Leu-Hyp-Gly]  130 µM
7. LP [Leu-Pro]  110 µM
8. LPGPA [Leu-Pro-Gly-Pro-Ala]  63 µM
9. LPG [Leu-Pro-Gly]  50 µM
10. APG [Ala-Pro-Gly]  30 µM

In order of falling “Inhibition rate (%) at 0.35 mg/ml time” value:
1. APG [Ala-Pro-Gly]  98.7%
2. LPGPA [Leu-Pro-Gly-Pro-Ala]  94.9%
3. LP [Leu-Pro]  92.1%
4. Leu-[Hyp]-Gly [Leu-Hyp-Gly]  89.3%
5. Ile-[Hyp]-Gly [Ile-Hyp-Gly]  71%
6. L[Hyp]GPA [Leu-Hyp-Gly-Pro-Ala]  52.1%
7. Leu-[Hyp] [Leu-Hyp]  48.6%
8. Pro-[Hyp]-Gly [Pro-Hyp-Gly]  27.2%
9. Ala-[Hyp]-Gly [Ala-Hyp-Gly]  14.6%
10. Phe-[Hyp] [Phe-Hyp]  0%
11. Pro-[Hyp] [Pro-Hyp]  0%
12. Ala-[Hyp] [Ala-Hyp]  0%
13. [Hyp]-Gly [Hyp-Gly]  0%

— patent publication US9340579B2, “DPP-4 inhibitor” (NIPPI, INCORPORATED, priority 2011, dated 2016)
